Our source for the OD450, FACS fluorescence intensity and OD450 nm values is patent publication US20250250357A1.

The target of assay [1] is human MSLN-R2-his protein (human) (UniProt Q13421). Description: ELISA, coated MSLN-R2. For orientation: ELISA stands for enzyme-linked immunosorbent assay.
In assay [2] the target is human MSLN protein, endogenously expressed on Hela and OVCAR3 cells (human) (UniProt Q13421). Description: FACS on OVCAR3 cells; antibody 0.032 nM.
Assay [3] concerns the target monkey MSLN full-length protein (NCBI: XP_028696439.1) on HEK293T cells (monkey). Description: FACS on HEK293T-monkey MSLN cells; antibody 0.00128 nM.
Assay [4] addresses human MSLN full-length protein (NCBI: AAH09272.1) on stably transfected CHO-K1 or HEK293T cells (human) (UniProt Q13421). Description: FACS on CHO-K1-hMSLN-2C8 cells; antibody 100 nM.
The target is the same in assay [5]. Description: FACS on CHO-K1-hMSLN-2C8 cells; antibody 0.032 nM.
The target in assay [6] is monkey MSLN full-length protein (NCBI: XP_028696439.1) on HEK293T cells (monkey). Description: FACS on HEK293T-monkey MSLN cells; antibody 4 nM.
Assay [7] concerns the target human MSLN-R3-3 polypeptide (human). Description: ELISA; antibody 1 nM.
Assay [8] concerns the target human MSLN full-length protein (NCBI: AAH09272.1) on stably transfected CHO-K1 or HEK293T cells (human) (UniProt Q13421). Description: FACS on CHO-K1-hMSLN-2C8 cells; antibody 0.8 nM.
Assay [9] addresses human MSLN protein, endogenously expressed on Hela and OVCAR3 cells (human) (UniProt Q13421). Description: FACS on OVCAR3 cells; antibody 0.8 nM.
For assay [10], the target named is human MSLN full-length protein (NCBI: AAH09272.1) on stably transfected CHO-K1 or HEK293T cells (human) (UniProt Q13421). Description: FACS on CHO-K1-hMSLN-2C8 cells; antibody 0.0064 nM.
The target is the same in assay [11]. Description: FACS on CHO-K1-hMSLN-2C8 cells; antibody […].
In assay [12] the target is monkey MSLN full-length protein (NCBI: XP_028696439.1) on HEK293T cells (monkey). Description: FACS on HEK293T-monkey MSLN cells; antibody 0.8 nM.
For assay [13] the target is unchanged. Description: FACS on HEK293T-monkey MSLN cells; antibody 0.0064 nM.
Assay [14] has as its target human MSLN protein, endogenously expressed on Hela and OVCAR3 cells (human) (UniProt Q13421). Description: FACS on OVCAR3 cells; antibody 20 nM.
For assay [15], the target named is human MSLN full-length protein (NCBI: AAH09272.1) on stably transfected CHO-K1 or HEK293T cells (human) (UniProt Q13421). Description: FACS on CHO-K1-hMSLN-2C8 cells; antibody 0.00128 nM.
For assay [16] the target is unchanged. Description: FACS on CHO-K1-hMSLN-2C8 cells; antibody 4 nM.
Assay [17] has as its target monkey MSLN full-length protein (NCBI: XP_028696439.1) on HEK293T cells (monkey). Description: FACS on HEK293T-monkey MSLN cells; antibody 100 nM.
In assay [18] the target is human MSLN protein, endogenously expressed on Hela and OVCAR3 cells (human) (UniProt Q13421). Description: FACS on OVCAR3 cells; antibody 0.00128 nM.
The target in assay [19] is monkey MSLN full-length protein (NCBI: XP_028696439.1) on HEK293T cells (monkey). Description: FACS on HEK293T-monkey MSLN cells; antibody […].
Assay [20] has the same target. Description: FACS on HEK293T-monkey MSLN cells; antibody 20 nM.
Assay [21] concerns the target human MSLN protein, endogenously expressed on Hela and OVCAR3 cells (human) (UniProt Q13421). Description: FACS on OVCAR3 cells; antibody 0.0064 nM.
The target is the same in assay [22]. Description: FACS on OVCAR3 cells; antibody 100 nM.
Assay [23] addresses monkey MSLN full-length protein (NCBI: XP_028696439.1) on HEK293T cells (monkey). Description: FACS on HEK293T-monkey MSLN cells; antibody 0.032 nM.
Assay [24] deals with human MSLN protein, endogenously expressed on Hela and OVCAR3 cells (human) (UniProt Q13421). Description: FACS on OVCAR3 cells; antibody […].
For assay [25] the target is unchanged. Description: FACS on OVCAR3 cells; antibody 4 nM.
Assay [26] has as its target human MSLN full-length protein (NCBI: AAH09272.1) on stably transfected CHO-K1 or HEK293T cells (human) (UniProt Q13421). Description: FACS on CHO-K1-hMSLN-2C8 cells; antibody 20 nM.

Sequence of human MSLN protein, endogenously expressed on Hela and OVCAR3 cells (human) (Q13421 other isoform, or with tags, fused parts or gaps): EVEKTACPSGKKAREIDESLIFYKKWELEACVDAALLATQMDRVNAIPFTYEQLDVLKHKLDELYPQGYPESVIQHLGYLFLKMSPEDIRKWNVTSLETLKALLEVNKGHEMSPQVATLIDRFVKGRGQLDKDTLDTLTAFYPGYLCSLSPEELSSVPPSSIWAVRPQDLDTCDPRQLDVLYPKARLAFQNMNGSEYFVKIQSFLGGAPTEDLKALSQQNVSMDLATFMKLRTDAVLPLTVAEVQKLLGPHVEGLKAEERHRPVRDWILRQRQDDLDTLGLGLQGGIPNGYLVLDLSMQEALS
Sequence of human MSLN-R2-his protein (human) (Q13421 other isoform, or with tags, fused parts or gaps): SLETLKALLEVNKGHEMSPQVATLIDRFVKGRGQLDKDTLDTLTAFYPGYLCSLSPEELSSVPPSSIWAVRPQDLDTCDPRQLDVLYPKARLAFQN

In the case of “Tab108 (YP218, scFv-hIgG1 Fc) (Fc fusion)”, the OD450 at 0.0001 nM in [1] came out at 0.03 OD450.

Turning to “hIgG1 (human IgG1 subtype control of Example 1) (antibody)”, the FACS fluorescence intensity in assay [2] came out at 75; in assay [3], 84; in [4], 72; in [5], 59; in assay [6] it was 85; in [8], 80. The FACS fluorescence intensity in [9] was determined as 76; in [10], 65; in [11] it was 59; in [12], 87; in [13], 85; in assay [14], 78. In addition, the FACS fluorescence intensity in assay [15] was 116; in assay [16], 110; in assay [17], 127; in assay [18], 75; in assay [19], 85; in assay [20] it was 84. Also, the FACS fluorescence intensity turned out to be 74 in assay [21]; 93 in assay [22]; 125 in assay [23]; 74 in [24]; 74 in assay [25]; 156 in [26]. The same substance gave an OD450 nm in [7] of 0.06.
